Here are results for 5 compounds from PMC11044165, “Two Novel [^68Ga]Ga-Labeled Radiotracers Based on Metabolically Stable [Sar^11]RM26 Antagonistic Peptide for Diagnostic Positron Emission Tomography Imaging of GRPR-Positive Prostate Cancer” (ACS Omega, 2024).

Data set [1] in a line: in vivo. Also noted: species or system BALB/C nu/nu mice. Particulars: BALB/C nu/nu, mouse, iv, total radioactivity. As for the experimental part: In vivo studies were conducted in accordance with European guidelines on laboratory animal protection and the Declaration of Helsinki. For the biodistribution and PET/CT experiments BALB/C nu/nu mice were used and the protocols were approved by the ethics committee for animal research in Uppsala (Sweden); permit number 00473/21.
After acclimatization, animals were subcutaneously injected on the right hind leg with a suspension of freshly harvested PC-3 cells (7 × 10^6 per animal) in PBS. Four weeks after, well palpable solid tumors were developed and the animals were randomly assigned in groups of four.
Animals (19 ± 2 g at the day of the experiment) were injected through the tail vein with 100 μL solution of radiopeptide under evaluation (40 pmol, 100 kBq–1 h pi, 40 pmol, 700 kBq–3 h pi) in PBS containing 1% w/v BSA. Another group of animals received a bolus injection with the radioconjugate (40 pmol, 300 kBq) in addition of 4 nmol of NOTA-PEG2-RM26–1 h pi Block group. At specified time points, animals were euthanized, tissues/organs of interest and tumors were collected, weighted, and the radioactivity content of the samples was measured.
Statistical analysis for the biodistribution data was performed with GraphPad Prism 7, employing a two-way ANOVA test with Tuckey’s posthoc analysis.

Data set [2] has as its system PC-3 bearing mice. The conditions noted are these: mouse, in vivo; cited from earlier work. As for the experimental part:
It is quite interesting to compare the biodistribution results for the two new conjugates with their counterparts without the Gly^11/Sar^11 substitution, i.e., [^68Ga]Ga-NOTA-PEG2-RM26 and [^68Ga]Ga-NODAGA-PEG2-RM26, previously reported.[24] Despite the similar amounts of peptide and activity injected, the biodistribution data for [^68Ga]Ga-NOTA-PEG2-RM26 and [^68Ga]Ga-NODAGA-PEG2-RM26, in PC-3 bearing mice, are reported only for […].[24] Under these conditions, we are going to focus on a comparison with the data for 3 h pi.

The conditions of data set [3]: in vivo; cited from earlier work. The text has this: In agreement with their preclinical data, SUV values for the pancreas for [^68Ga]Ga-SB3 and [^68Ga]Ga-RM2 were around 40, while for [^68Ga]Ga-PEG3-RM26, this value was 2-fold lower.
The mark [4] stands for this setting: 40 pmol, Activity in GI (gastrointestinal tract).
[5] abbreviates: 40 pmol, Activity uptake in blood.
Setting [6] is: 40 pmol, Activity uptake in kidneys.
Setting [7] is: 40 pmol, Activity uptake in tumor.
The mark [8] stands for this setting: Activity in GI (gastrointestinal tract).

Turning to `CC(C)C[C@H](NC(=O)C[C@H](O)[C@H](CC(C)C)NC(=O)[C@H](Cc1c[nH]cn1)NC(=O)CN(C)C(=O)[C@@H](NC(=O)[C@H](C)NC(=O)[C@H](Cc1c[nH]c2ccccc12)NC(=O)[C@H](CCC(N)=O)NC(=O)[C@@H](Cc1ccccc1)NC(=O)COCCOCCNC(=O)CCC(C(=O)O)N1CCN(CC(=O)O)CCN(CC(=O)O)CC1)C(C)C)C(N)=O` (stereo partly drawn) [[^68Ga]Ga-NODAGA-PEG2-[Sar^11]RM26, metal not drawn], the tissue uptake dose at 1 h in data set [1] (setting [4]) came to 2.5 ± 0.3 %ID; in data set [1] (40 pmol, Activity in body), 3.8 ± 0.6 %ID; in data set [1] (setting [8]) it was 1.6 ± 0.2 %ID; in data set [1] (Activity in body), 4 ± 3 %ID. The tissue uptake dose at 3 h in data set [1] (setting [4]) came to 1.8 ± 0.7 %ID; in data set [1] (40 pmol, Activity in body), 2.2 ± 0.9 %ID. Besides, the tissue uptake at 1 h was under 1 %ID/g in data set [1] (setting [5]), under 5 %ID/g in data set [1] (setting [6]) and 17 ± 3 %ID/g in data set [1] (setting [7]). Besides, the tissue uptake at 3 h in data set [1] (setting [7]) is 15 ± 3 %ID/g.
As for “NOTA-PEG3-d-Phe-Gln-Trp-Ala-Val-Gly-His-Sta-Leu-NH2 [[^68Ga]Ga-NOTA-PEG3-RM26, GRPR-targeting radioconjugate tested in clinical trials]”, the Tumor/pancreas ratio entry in data set [2] was “over 1”. Moreover, the “SUV values for the pancreas” value in data set [3] is given as 2-fold lower.
“DOTA-Pip-DPhe-Gln-Trp-Ala-Val-Gly-His-Sta-Leu-NH2 [[^68Ga]Ga-RM2, GRPR-targeting radioconjugate tested in clinical trials]”: the “SUV values for the pancreas” value in data set [3] is “around 40”.
As to “DOTA-p-aminomethylaniline-diglycolic acid-DPhe-Gln-Trp-Ala-Val-Gly-His-Leu-NHEt [[^68Ga]Ga-SB3, GRPR-targeting radioconjugate tested in clinical trials]”, the “SUV values for the pancreas” value in data set [3] was “around 40”.
`CC(C)C[C@H](NC(=O)C[C@H](O)[C@H](CC(C)C)NC(=O)[C@H](Cc1c[nH]cn1)NC(=O)CN(C)C(=O)[C@@H](NC(=O)[C@H](C)NC(=O)[C@H](Cc1c[nH]c2ccccc12)NC(=O)[C@H](CCC(N)=O)NC(=O)[C@@H](Cc1ccccc1)NC(=O)COCCOCCNC(=O)CN1CCN(CC(=O)O)CCN(CC(=O)O)CC1)C(C)C)C(N)=O` [[^68Ga]Ga-NOTA-PEG2-[Sar^11]RM26, metal not drawn]: the tissue uptake dose at 1 h is 3 ± 0.4 %ID in data set [1] (setting [4]); 5 ± 0.2 %ID in data set [1] (40 pmol, Activity in body); 1.7 ± 0.2 %ID in data set [1] (setting [8]); 4.1 ± 0.6 %ID in data set [1] (Activity in body). Besides, the tissue uptake dose at 3 h in data set [1] (setting [4]) stood at 2 ± 1 %ID; in data set [1] (40 pmol, Activity in body) it was 2 ± 1 %ID. In addition, the results for the tissue uptake at 1 h in data set [1] (setting [5]), in data set [1] (setting [6]) and in data set [1] (setting [7]) were under 1 %ID/g, under 5 %ID/g and 14 ± 3 %ID/g, respectively. The tissue uptake at 3 h in data set [1] (setting [7]) was 13 ± 1 %ID/g.
